The nature of the series: label from the status in PepcDB records.

For the sequence “MKVLTVVIPCYNSAEYMDRAIESLLIGDEELEILIVNDGSMDNTSIIADEYEKKYPNTIRVIHKENGGHGDAINTGLKHSKGVYFKVLDSDDWFDKASLKKVLEVLKNMIKDSKSLDMLISNYVYENFSINKSRSINYKGAMPKEKIFTWDSLGHLKSSQNILMHSVIYRTELLRECNLDLPKHTFYVDNIFVYKPLPYVKTMYYLDVDLYRYFIGREDQSVNEKVMIKRIDQQIKVTKILIDCYNPMLLNCKKLRKYMVKYLVMMMTVSTVLLIKDNTEQSLNKKRELWSYLHSKNRKLYFEVNKSFLGLLIQIKGFVGRKIILLGYSLSRKVFGFNLEHHHHHH”, the protein production result was “failed”.
Then “MKVNILMATYNGEKFLAQQIESIQKQTFKEWNLLIRDDGSSDKTCDIIRNFTAKDSRIRFINENEHHNLGVIKSFFTLVNYEVADFYFFSDQDDVWLPEKLSVSLEAAKHKASDVPLLVYTDLKVVNQELNILQDSMIRAQSHHANTTLLPELTENTVTGGTMMINHALAEKWFTPNDILMHDWFLALLAASLGEIIYLDLPTQLYRQHDNNVLGARTMDKRFKILREGPKSIFTRYWKLIHDSQKQASLIVDKYGDIMTANDLELIKCFIKIDKQPFMTRLRWLWKYGYSKNQFKHQVVFKWLIATNYYNKRLEHHHHHH”, with “not failed”.
“MKVPEAAISRLITYLRILEELEAQGVHRTSSEQLGELAQVTAFQVRKDLSYFGSYGTRGVGYTVPVLKRELRHILGLNRKWGLCIVGMGRLGSALADYPGFGESFELRGFFDVDPEKVGRPVRGGVIEHVDLLPQRVPGRIEIALLTVPREAAQKAADLLVAAGIKGILNFAPVVLEVPKEVAVENVDFLAGLTRLSFAILNPKWREEMMG”: the protein production result is recorded as “not failed”.
Then “MKVPKYQLIQNDLRQQIVSGKFENGDKFYTESELTKLFNVSSITVIRAVNELVKDGYLVRQQGKGTFVSRSRKGRLVEFSDIEIFPMDKDKVTVLSCEKGNKPDILEKLNLDKNEFYYKIVRVRAAEDTPYIFHNSYIPQRYIQNPDAPLEHYQSIYQRFKLDYNIHMSEEPFVETNEIVSPCPKEVATHLKLKATEPAVLQNKTTTNSTSGEVMEYTETYKHWKYYKFEITANHR”, with “not failed”.
With “MKVSILIITYNHSHFIAQAIESVLMQKVKFEYEIVIGEDSSTDNTRQILLDYQKQYSDKIRLLLPEKNLGMHRNFVNTLQACRGEYIAILEGDDYWIADDKLQKQVEFLDENPDFTICFHNVMVFHEDNQYQPYIFLHNQPTVSYIEDLLIRNFISTPSVMYRNGLVESIPTWFYEQGMGDWIFHILNAQYGKIGYIDEVMSAYRIHVQGVWSSKSRDWQLKETIRMLDTIKSNVNVRYAEIIDRAVQFYSEQLLYLVPESQEVTPVLNTSLPNYLQIKDINFIAFPDWNQPEELLYQSLYYAIKLFLTHPENNKIALFIDTTDISEEDADIYISSTLMNLMLEEELEESHKINVFLIGELDQIQWQTLLSFLKARIVLPSENLDAILASGTAIIPCLTVEQLIEFDLTFIESAKPYKLNIGCGNVRFHGWINIDIEQNYKTVDLVCDARQKLPFNDNSCDLIYNEHFLEHLTLEEGLFFLKECHRILKPEGILRIAMPSLEYVVQKYMSDDWRNQEWLNYPEYQFIKTRAEMLNIAMRWWGHQWLYDTEELHRRLTESGYINVQNFAWGKSNTPDLRNRETRVDSILICESQALK” the entry was “failed”; with “MKVTDVRLRKIQTDGRMKALVSITLDEAFVIHDLRVIEGNSGLFVAMPSKRTPDGEFRDIAHPINSDMRQEIQDAVMKVYDETDEVVPDKNATSEDSEEA”, “not failed”.
With “MKVYLHFSPQFFANTYLIGNEITKEAVIIDPAKITEKMIHQIEKNEFNLKAVLLTHDLEHPYETGLNTILKIYSPKVYAGSCFSENVTINTLRGDGCIDVAGYSVRYFAIPAHSSYSYMFQIENMVFTGTSLSAGMIGQTSNMYAERTLRNILKTKLMCFEDNLIIMPFYGPPTSIGVERKYNASFFQDLEHHHHHH” the entry was “failed”; with “MKVYVVVPTYNESDNIVALMEKILAQRDNIHVLVVDDNSPDGTGEIAARMSSDNPRIHVLRRSGKMGLGSAYCDGFRVALRDGADFIIEMDADFSHDPATIPALLAATDKYDVVVGSRYLNGVSVVNWPIRRLMLSYFASVYTRFVTGLALRDCTSGFKCFRRRVIESVDLDTIRSDGYSFQIEMNYRCVERGFRVGEIPIIFIDRHAGSSKMSKKIVREAVLMVWKLKLGSLVKKLTRRGDRHAALEHHHHHH”, “not failed”.

The values above are taken from a protein production outcome set (Wang et al. 2014).
